Test results published in patent US20240018501A1, “HIGHER PERFORMANCE PROTEASES FOR SCARLESS PEPTIDE TAG REMOVAL” (priority 2017, published 2024).

How the values were obtained:
[1] = target: LicA2-V-4F
[2] = target: MBP-BamL
[3] = target: LicA2-E-1A
[4] = target: NisA-NDVNPE-I1T, P13068
[5] = target: LicA2-V-4L
[6] = target: Linear LicA2
[7] = target: NisA-NDVNPE-I1K, P13068
[8] = target: LicA2-P-2A
[9] = target: ProcA1.7-NDVNPE
[10] = target: Modified LicA2
[11] = target: NisA-NDVNPE, P13068
[12] = target: LicA2-E-1Q
[13] = target: DVNPE-Licβ
[14] = target: NisA-NDVNPE-I1E, P13068
NisA-NDVNPE-I1E, P13068, sequence (P13068 whole entry, looked up): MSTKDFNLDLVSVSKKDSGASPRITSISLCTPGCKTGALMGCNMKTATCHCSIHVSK

[15] = target: NisA-NDVNPE-I1C, P13068
NisA-NDVNPE-I1C, P13068, sequence (P13068 whole entry, looked up): as above

[16] = target: His6-LicP-25-433-S376A
[17] = target: LicA2-D-5A
[18] = target: NisA-NDVNPE-I1L, P13068
NisA-NDVNPE-I1L, P13068, sequence (P13068 whole entry, looked up): as above

[19] = target: NisA-NDVNPE-I1G, P13068
NisA-NDVNPE-I1G, P13068, sequence (P13068 whole entry, looked up): as above

[20] = target: NisA-NDVNPE-I1F, P13068
NisA-NDVNPE-I1F, P13068, sequence (P13068 whole entry, looked up): as above

[21] = target: linear G-LicA2
[22] = target: LicA2-D-5K
[23] = target: LicA2-N-3A
[24] = target: LicA2-E-1D
[25] = target: LicA2-V-4A
[26] = target: NisA-NDVNPE-I1W, P13068
NisA-NDVNPE-I1W, P13068, sequence (P13068 whole entry, looked up): as above

[27] = test system: LicP; assay: LicP self-cleavage and intermolecular cleavage (SDS-PAGE, MALDI-TOF MS); assay type: biochemical, Bacillus licheniformis ATCC 14580
Procedure: Expression and purification of LicP and LicP mutant proteins. E. coli BL21 (DE3) cells were transformed with one of the following plasmids: pRSFDuet-1/LicP-25-433, pRSFDuet-1/LicP-25-433-S376A, pRSFDuet-1/LicP-25-433-H186A, pRSFDuet-1/LicP-25-433-E100A or pRSFDuet-1/LicP-25-433-E100A-E102A, and plated on an LB plate containing 50 mg/L kanamycin. A single colony was picked and grown in 20 mL of LB containing 50 mg/L kanamycin at 37° C. for 12 h and the resulting culture was inoculated into 2 L of LB containing 50 mg/L kanamycin. Cells were cultured at 37° C. until the OD at 600 nm reached 0.5, cooled and IPTG was added to a final concentration of 0.1 mM. The cells were cultured at 18° C. for another 10 h before harvesting. The cell pellet was resuspended on ice in LanP buffer (20 mM HEPES, 1 M NaCl, pH 7.5 at 25° C.) and lysed by homogenization. The lysed sample was centrifuged at 23,700×g for 30 min and the pellet was discarded. […] Protein concentration was quantified by the absorbance at 280 nm. The extinction coefficient for His6-LicP-25-433 was calculated as 46,300 M^−1 cm^−1. […]
Intermolecular cleavage of His6-LicP-25-433-S376A by His6-LicP-25-433. […] The three reactions were allowed to proceed at room temperature for 0, 2, 4, 7 and 19 h before being stopped by addition of SDS loading buffer and boiling at 95° C. for 10 min and analyzed by SDS-PAGE.

[28] = Storage and freeze-thaw stability of the proteases; assay type: physicochemical

NisA-NDVNPE, P13068, sequence (P13068 whole entry, looked up): as above
NisA-NDVNPE-I1T, P13068, sequence (P13068 whole entry, looked up): as above
NisA-NDVNPE-I1K, P13068, sequence (P13068 whole entry, looked up): as above

B1: His6-LicP-25-433 (protein)
chain: GSSHHHHHHSQDPKEQAGEQYLLLEHVKDKSKLLDTAEQFHIHADVIEEIGFAKVTGEKQKLAPFTKKLAEKVGADVIEKPIANTAVNETESVISGSPAWGLDGILELKEYLWFAAKQTDSYRTYQIERGHPDVKVALIDSGLDLDHPDLKASVNTNGGWNYIDGKPVSGDPTGHGTQTAGMINIIAPDVTITPYQVLDEKGGDSYNIMKAMVDAVNDGHEVINISTGSYTSLDREGKVLMKAYQRAANYAAKHQVLVFSSAGNKGVNLDEMRKTENKVHLPSALKHVVSVGSNMKSNNISPYSNQGREIEFTAPGGYLGETYDQDGMVRVTDLVLTTYPKGKDNTALDQMLNIPKGYSLSYGTSLAAPQVAGTAALVISEYRERHHRKPSAKQVHHILRKSALDLGKPGKDVIYGYGEVRAYQALKMMNKE
- time-dependent cleavage by LicP, gel-based assay (100 µM peptide, 0.4 µM LicP) [1]: LicA2-V-4F was no longer processed
- Complete Reaction? (LicP cleavage; [LicP] 0.5 µM, [Substrate] 50 µM, 12 h at 4 C) [2]: Y
- removal of the MBP tag, SDS-PAGE time course, against TEV protease [2]: LicP was capable of removing the MBP-tag in front of the BamL protein with similar efficiency as TEV
- time-dependent cleavage by LicP, gel-based assay (100 µM peptide, 0.4 µM LicP) [3]: LicA2-E-1A was not a substrate under the assay conditions
- Complete Reaction? (LicP cleavage; [LicP] 0.2 µM, [Substrate] 65 µM, 20 h at RT) [4]: Y
- removal of the NisA leader peptide by LicP, MALDI-TOF MS [4]: The highest proteolytic efficiency was obtained when the P1′ position was occupied by Thr or Cys
- time-dependent cleavage by LicP, gel-based assay (100 µM peptide, 0.4 µM LicP) [5]: still accepted by LicP with a slightly reduced cleavage efficiency
- Complete Reaction? (LicP cleavage; [LicP] 1 µM, [Substrate] 290 µM, 6 h at RT) [6]: Y
- Complete Reaction? (LicP cleavage; [LicP] 2 µM, [Substrate] 65 µM, 30 h at RT) [7]: N
- removal of the NisA leader peptide by LicP, MALDI-TOF MS [7]: also accepted by LicP, although some substrate still remained after 30 hours of incubation
- time-dependent cleavage by LicP, gel-based assay (100 µM peptide, 0.4 µM LicP) [8]: alanine substitution at both sites did not alter the processing efficiency of LicP significantly
- Complete Reaction? (LicP cleavage; [LicP] 0.2 µM, [Substrate] 180 µM, 4 h at RT) [9]: Y
- Complete Reaction? (LicP cleavage; [LicP] 21 nM, [Substrate] 17 µM, 10 min at RT) [10]: Y
- rate of cleavage in a competitive MALDI-TOF MS assay (21 nM LicP, 17 µM each of modified LicA2 and linear G-LicA2) [10]: complete consumption of modified LicA2 peptide within 10 min, corresponding to a rate of at least 80 min^-1
- Complete Reaction? (LicP cleavage; [LicP] 2 µM, [Substrate] 65 µM, 30 h at RT) [11]: Y
- removal of the NisA leader peptide by LicP, MALDI-TOF MS [11]: in front of a Gly or Ile residue was slightly less efficient, but complete consumption of precursor peptides was still observed
- time-dependent cleavage by LicP, gel-based assay (100 µM peptide, 0.4 µM LicP) [12]: even substitution with structurally related amino acids Asp and Gln was not tolerated
- cleavage by LicP, MALDI-TOF MS [13]: the 5-residue oligopeptide was successfully removed
- Complete Reaction? (LicP cleavage; [LicP] 2 µM, [Substrate] 65 µM, 30 h at RT) [14]: N
- removal of the NisA leader peptide by LicP, MALDI-TOF MS [14]: Peptides with Glu or Phe in the P1′ position turned out to be poor substrates
- Complete Reaction? (LicP cleavage; [LicP] 0.2 µM, [Substrate] 65 µM, 20 h at RT) [15]: Y
- removal of the NisA leader peptide by LicP, MALDI-TOF MS [15]: The highest proteolytic efficiency was obtained when the P1′ position was occupied by Thr or Cys
- intermolecular cleavage of the S376A mutant by wild type LicP, SDS-PAGE, 1:1, 0.1 mg/mL each [16]: autoprotolysis can take place intermolecularly, albeit slowly
- time-dependent cleavage by LicP, gel-based assay (100 µM peptide, 0.4 µM LicP) [17]: LicA2-D-5A and LicA2-D-5K are processed much more slowly
- Complete Reaction? (LicP cleavage; [LicP] 2 µM, [Substrate] 65 µM, 30 h at RT) [18]: N
- removal of the NisA leader peptide by LicP, MALDI-TOF MS [18]: also accepted by LicP, although some substrate still remained after 30 hours of incubation
- Complete Reaction? (LicP cleavage; [LicP] 2 µM, [Substrate] 65 µM, 30 h at RT) [19]: Y
- removal of the NisA leader peptide by LicP, MALDI-TOF MS [19]: in front of a Gly or Ile residue was slightly less efficient, but complete consumption of precursor peptides was still observed
- Complete Reaction? (LicP cleavage; [LicP] 2 µM, [Substrate] 65 µM, 30 h at RT) [20]: N
- removal of the NisA leader peptide by LicP, MALDI-TOF MS [20]: Peptides with Glu or Phe in the P1′ position turned out to be poor substrates
- competitive MALDI-TOF MS assay (21 nM LicP, 17 µM each of modified LicA2 and linear G-LicA2) [21]: the cleavage of linear LicA2 only started after the modified LicA2 had been consumed and required more enzyme to be completed
- time-dependent cleavage by LicP, gel-based assay (100 µM peptide, 0.4 µM LicP) [22]: LicA2-D-5A and LicA2-D-5K are processed much more slowly
- time-dependent cleavage by LicP, gel-based assay (100 µM peptide, 0.4 µM LicP) [23]: alanine substitution at both sites did not alter the processing efficiency of LicP significantly
- time-dependent cleavage by LicP, gel-based assay (100 µM peptide, 0.4 µM LicP) [24]: even substitution with structurally related amino acids Asp and Gln was not tolerated
- time-dependent cleavage by LicP, gel-based assay (100 µM peptide, 0.4 µM LicP) [25]: still accepted by LicP with a slightly reduced cleavage efficiency
- Complete Reaction? (LicP cleavage; [LicP] 2 µM, [Substrate] 65 µM, 30 h at RT) [26]: N
- removal of the NisA leader peptide by LicP, MALDI-TOF MS [26]: also accepted by LicP, although some substrate still remained after 30 hours of incubation
- LicP self-cleavage during expression [27]: a cleavage event occurred
- activity after multiple rounds of freeze-thaw [28]: no obvious decrease in activity
- activity after storage ([28]; 12 weeks at 4° C): persistent activity
